# Test results reported in article PMC6053526, “Arabidopsis WRKY50 and TGA Transcription Factors Synergistically Activate Expression of PR1” (Frontiers in Plant Science, 2018).
# B1: TGA2 full length fused to a half of yellow fluorescent protein (BiFC) (natural protein, Arabidopsis, UniProt P43273 1-330, looked up)
# chain: MADTSPRTDVSTDDDTDHPDLGSEGALVNTAASDSSDRSKGKMDQKTLRRLAQNREAARKSRLRKKAYVQQLENSRLKLTQLEQELQRARQQGVFISGTGDQAHSTGGNGALAFDAEHSRWLEEKNKQMNELRSALNAHAGDSELRIIVDGVMAHYEELFRIKSNAAKNDVFHLLSGMWKTPAERCFLWLGGFRSSELLKLLANQLEPMTERQLMGINNLQQTSQQAEDALSQGMESLQQSLADTLSSGTLGSSSSGNVASYMGQMAMAMGKLGTLEGFIRQADNLRLQTLQQMIRVLTTRQSARALLAIHDYFSRLRALSSLWLARPRE
# B2: TGA5 full length fused to a half of yellow fluorescent protein (BiFC) (natural protein, Arabidopsis, UniProt Q39163 1-330, looked up)
# chain: MGDTSPRTSVSTDGDTDHNNLMFDEGHLGIGASDSSDRSKSKMDQKTLRRLAQNREAARKSRLRKKAYVQQLENSRLKLTQLEQELQRARQQGVFISSSGDQAHSTAGDGAMAFDVEYRRWQEDKNRQMKELSSAIDSHATDSELRIIVDGVIAHYEELYRIKGNAAKSDVFHLLSGMWKTPAERCFLWLGGFRSSELLKLIASQLEPLTEQQSLDINNLQQSSQQAEDALSQGMDNLQQSLADTLSSGTLGSSSSGNVASYMGQMAMAMGKLGTLEGFIRQADNLRLQTYQQMVRLLTTRQSARALLAVHNYTLRLRALSSLWLARPRE
# Molecular target: AtWRKY50 full length fused to a half of yellow fluorescent protein (BiFC) (Arabidopsis, UniProt Q8VWQ5 1-173)
# Sequence (Q8VWQ5 whole entry, the tested form may be a part): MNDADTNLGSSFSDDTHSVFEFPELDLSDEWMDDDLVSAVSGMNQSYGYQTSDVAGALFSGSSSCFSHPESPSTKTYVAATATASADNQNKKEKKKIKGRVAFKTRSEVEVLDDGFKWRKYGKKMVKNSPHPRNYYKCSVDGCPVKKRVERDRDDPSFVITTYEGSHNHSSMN
# Assay: cell-based or functional assay
binder,measurement,value
B1,"PR1::GUS reporter expression in Arabidopsis protoplasts co-transfected with 35S::AtWRKY50 and 35S::TGA2 (AtWRKY50 alone approximately 7-fold, TGA alone 2-fold)",≤ 14 fold
B2,"PR1::GUS reporter expression in Arabidopsis protoplasts co-transfected with 35S::AtWRKY50 and 35S::TGA5 (AtWRKY50 alone approximately 7-fold, TGA alone 2-fold)",≤ 14 fold
